Experimental data reported in the supplement of paper PMC10126150.
± gives the standard deviation of the averaged measurements.

Test system: ATP
Test: switch fluorescence ratio, 500 uM ATP over buffer (Cy3 cluster intensity, sum of 5 cycles each) (fold (ratio)); higher = stronger signal-on switching upon ATP binding; sequences stand for … in TCGTCGGCAGCGTCAGATGTGTATAAGAGACAGTTTTTTTTTTTTTTTTTTTTTTTTT…TC
Conditions: aptamer strand: ATP DNA aptamer (quencher-CACCTGGGGGAGTATTGCGGAGGAAGG + anchor), 100 nM annealed; ATP concentration: 500 uM
Method in brief: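 Switching-strand clusters labelled with Cy3 on a modified Illumina MiSeq flow-cell were annealed to 100 nM quencher-labelled ATP aptamer, imaged in selection buffer, and re-imaged after 15 min with 500 uM ATP at 22 °C. This was done over five cycles with NaOH stripping and re-annealing in between. The fluorescence ratio is summed target-cycle over summed buffer-cycle Cy3 intensity per cluster, averaged per switch-domain sequence, excluding clusters outside 100-1000 RFU.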
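Further: ATP exposure 15 min at 22 °C before imaging.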

With GGTCCGGCAC the switch fluorescence ratio was 1.079 ± 0.009.
Sequence GGTCCGGGCT has a switch fluorescence ratio of 1 ± 0.02.
GGTCCTAATA gave a switch fluorescence ratio of 1 ± 0.026.
GGTCCTCTTT showed a switch fluorescence ratio of 0.98275 ± 0.00076.
For GGTCCTGCGG, the switch fluorescence ratio was 1.01 ± 0.087.
GGTCCTGGCT gave a switch fluorescence ratio of 1.015 ± 0.01.
Sequence GGTCGAAAGG has a switch fluorescence ratio of 0.985 ± 0.063.
GGTCGAGCTA was tested, and the switch fluorescence ratio was 0.996 ± 0.042.
In the case of GGTCGCGGGG, the switch fluorescence ratio is reported as 1.03 ± 0.027.
GGTCGCTTGG was tested, and the switch fluorescence ratio was 1.04 ± 0.061.
With GGTCGGGCTG the switch fluorescence ratio was 0.9942 ± 0.0047.
GGTCGGGGCA showed a switch fluorescence ratio of 1.02 ± 0.025.
For GGTCGGGGGG, the switch fluorescence ratio was 1.03 ± 0.037.
GGTCGGGGTG showed a switch fluorescence ratio of 1.09 ± 0.069.
With GGTCGTCTTG the switch fluorescence ratio was 0.996 ± 0.04.
Work on GGTCGTGTAA yielded a switch fluorescence ratio of 0.991 ± 0.061.
With GGTCGTTTTG the switch fluorescence ratio was 0.991 ± 0.025.
With GGTCTAAGTA the switch fluorescence ratio was 1.08 ± 0.084.
With GGTCTAGTCC the switch fluorescence ratio was 1.018 ± 0.0034.
GGTCTATCGG showed a switch fluorescence ratio of 0.965 ± 0.018.
For GGTCTATCGT, the switch fluorescence ratio was 1 ± 0.039.
Work on GGTCTCAGGT yielded a switch fluorescence ratio of 1.03 ± 0.023.
GGTCTCCTTT showed a switch fluorescence ratio of 0.971 ± 0.018.
GGTCTGAAGT showed a switch fluorescence ratio of 1.008 ± 0.004.
GGTCTGGGAG showed a switch fluorescence ratio of 1 ± 0.023.
GGTCTGGGTG showed a switch fluorescence ratio of 1.08 ± 0.066.
With GGTCTGTTGT the switch fluorescence ratio was 0.99 ± 0.049.
GGTCTTGTTT was tested, and the switch fluorescence ratio was 0.9891 ± 0.0078.
Sequence GGTCTTTTGG has a switch fluorescence ratio of 0.981 ± 0.013.
GGTGAAAGCT was tested, and the switch fluorescence ratio was 1.04 ± 0.019.
For GGTGAAATTG, the switch fluorescence ratio was 1 ± 0.015.
In the case of GGTGAAGAGG, the switch fluorescence ratio is reported as 0.9791 ± 0.0061.
With GGTGAAGCCT the switch fluorescence ratio was 0.991 ± 0.047.
For GGTGAATGGC, the switch fluorescence ratio was 1.03 ± 0.017.
GGTGACACTT was tested, and the switch fluorescence ratio was 0.996 ± 0.033.
Sequence GGTGACGATT has a switch fluorescence ratio of 0.9712 ± 0.0065.
GGTGACGCTG gave a switch fluorescence ratio of 0.992 ± 0.031.
Work on GGTGACTGGG yielded a switch fluorescence ratio of 0.903 ± 0.042.
Work on GGTGAGCTAG yielded a switch fluorescence ratio of 0.9866 ± 0.0034.
GGTGATAGTG showed a switch fluorescence ratio of 0.983 ± 0.024.
Sequence GGTGATGAAA has a switch fluorescence ratio of 0.998 ± 0.025.
Work on GGTGATGGTT yielded a switch fluorescence ratio of 0.986 ± 0.047.
With GGTGATGTGG the switch fluorescence ratio was 0.986 ± 0.022.
GGTGATTGAC gave a switch fluorescence ratio of 1.18 ± 0.3.
With GGTGCAATGA the switch fluorescence ratio was 1.956 ± 0.0021.
With GGTGCAGCTG the switch fluorescence ratio was 0.981 ± 0.016.
Sequence GGTGCAGGAG has a switch fluorescence ratio of 0.999 ± 0.035.
For GGTGCATATA, the switch fluorescence ratio was 1.05 ± 0.032.
Sequence GGTGCGCATA has a switch fluorescence ratio of 1.03 ± 0.019.
With GGTGCGCATG the switch fluorescence ratio was 0.994 ± 0.011.
For GGTGCTAGAA, the switch fluorescence ratio was 0.9789 ± 0.0083.
GGTGCTAGTG showed a switch fluorescence ratio of 0.999 ± 0.015.
With GGTGCTGTGT the switch fluorescence ratio was 1.01 ± 0.039.
GGTGGAAAAG showed a switch fluorescence ratio of 1 ± 0.023.
With GGTGGCGGAT the switch fluorescence ratio was 1.07 ± 0.033.
GGTGGCGTTA was tested, and the switch fluorescence ratio was 0.999 ± 0.016.
GGTGGCTTTT gave a switch fluorescence ratio of 1.02 ± 0.099.
GGTGGGATGA showed a switch fluorescence ratio of 0.965 ± 0.015.
For GGTGGGCGGA, the switch fluorescence ratio was 1.01 ± 0.029.
GGTGGGGAAC was tested, and the switch fluorescence ratio was 1.03 ± 0.068.
GGTGGGGAAT gave a switch fluorescence ratio of 0.979 ± 0.022.
With GGTGGGGATG the switch fluorescence ratio was 0.984 ± 0.027.
GGTGGGGCTT was tested, and the switch fluorescence ratio was 0.998 ± 0.025.
GGTGGGGGTG gave a switch fluorescence ratio of 0.998 ± 0.031.
In the case of GGTGTAATAG, the switch fluorescence ratio is reported as 1.04 ± 0.036.
GGTGTAGAAC was tested, and the switch fluorescence ratio was 1 ± 0.049.
With GGTGTAGCGA the switch fluorescence ratio was 1.03 ± 0.026.
With GGTGTAGGCA the switch fluorescence ratio was 0.987 ± 0.03.
GGTGTAGGGA showed a switch fluorescence ratio of 0.992 ± 0.013.
GGTGTAGGGG was tested, and the switch fluorescence ratio was 1.04 ± 0.074.
GGTGTAGTTG showed a switch fluorescence ratio of 0.999 ± 0.037.
GGTGTATAAA showed a switch fluorescence ratio of 0.967 ± 0.054.
GGTGTATAGG showed a switch fluorescence ratio of 1.01 ± 0.011.
GGTGTATGAA was tested, and the switch fluorescence ratio was 0.994 ± 0.029.
In the case of GGTGTCCGGT, the switch fluorescence ratio is reported as 0.998 ± 0.03.
GGTGTCGGGT was tested, and the switch fluorescence ratio was 0.99 ± 0.012.
In the case of GGTGTCTGGG, the switch fluorescence ratio is reported as 0.984 ± 0.074.
GGTGTCTGGT gave a switch fluorescence ratio of 1.001 ± 0.0061.
With GGTGTCTTAC the switch fluorescence ratio was 1.01 ± 0.029.
GGTGTGACCA gave a switch fluorescence ratio of 1.02 ± 0.015.
Sequence GGTGTGCCAA has a switch fluorescence ratio of 1 ± 0.022.
Sequence GGTGTGCGGA has a switch fluorescence ratio of 1.02 ± 0.024.
GGTGTGCGTC was tested, and the switch fluorescence ratio was 1 ± 0.026.
In the case of GGTGTGGCTA, the switch fluorescence ratio is reported as 0.989 ± 0.012.
GGTGTGGGGC showed a switch fluorescence ratio of 1.01 ± 0.024.
GGTGTGGTGC was tested, and the switch fluorescence ratio was 1.02 ± 0.012.
With GGTGTGTACG the switch fluorescence ratio was 1.28 ± 0.41.
Sequence GGTGTGTGCT has a switch fluorescence ratio of 0.989 ± 0.049.
In the case of GGTGTGTGTC, the switch fluorescence ratio is reported as 1.02 ± 0.02.
For GGTGTGTTTT, the switch fluorescence ratio was 0.981 ± 0.048.
Sequence GGTGTTAATT has a switch fluorescence ratio of 0.9888 ± 0.0093.
In the case of GGTGTTAGTG, the switch fluorescence ratio is reported as 0.977 ± 0.023.
GGTGTTATAT gave a switch fluorescence ratio of 1.02 ± 0.04.
Work on GGTGTTGATC yielded a switch fluorescence ratio of 1.03 ± 0.025.
GGTGTTTCGC gave a switch fluorescence ratio of 0.994 ± 0.0095.
Work on GGTGTTTCGG yielded a switch fluorescence ratio of 0.966 ± 0.014.
Work on GGTGTTTGAC yielded a switch fluorescence ratio of 0.999 ± 0.011.
With GGTGTTTTCG the switch fluorescence ratio was 0.998 ± 0.03.
GGTTAAAGAA gave a switch fluorescence ratio of 1.004 ± 0.0082.
In the case of GGTTAATAGG, the switch fluorescence ratio is reported as 0.99 ± 0.013.
